Assay [1] concerns the target T1, BSA-Compound 1 conjugate (human CCR4 extracellular region peptide Compound 1 conjugated to bovine serum … (human, also: conjugated to BSA via SMCC)).
T1 construct: Coated antigen of the ELISA; also called CCR4 partial peptide
T1 peptide: DESIYSNYYLYESIPKPC
Put plainly: ELISA, COS-7 culture supernatant on BSA-Compound 1 conjugate. As for the experimental part:
Into a 96 well ELISA plate (manufactured by Greiner), 0.05 μg/ml of the prepared conjugate was dispensed in at 50 μl/well and allowed to stand at 4° C. overnight for adsorption. After washing with PBS, PBS containing 1% BSA (hereinafter referred to as “1% BSA-PBS”) was added thereto at 100 μl/well and allowed to react at room temperature for 1 hour to block the remaining active groups. After washing each well with PBS containing 0.05% Tween 20 (hereinafter referred to as “Tween-PBS”), a culture supernatant of the transformant was added at 50 μl/well and allowed to react at room temperature for 1 hour. After the reaction and subsequent washing of each well with Tween-PBS, a peroxidase-labeled goat anti-human IgG(γ) antibody solution (manufactured by American Qualex) diluted 6,000 folds with 1% BSA-PBS was added as a secondary antibody solution at 50 μl/well and allowed to react at room temperature for 1 hour. After the reaction and subsequent washing with Tween-PBS, an ABTS substrate solution (a solution prepared by dissolving 0.55 g of 2,2′-azino-bis(3-ethylbenzothiazoline-6-sulfonic acid) ammonium in 1 liter of 0.1 M citrate buffer (pH 4.2) and adding 1 μl/ml hydrogen peroxide just before use) was added at 50 μl well to develop color, and the reaction was stopped 20 minutes thereafter by adding 5% SDS solution at 50 μl/well. Thereafter, absorbance at 415 nm was measured.

The target in assay [2] is T2, biotinylated Compound 1 (biotinylated CCR4 partial peptide) (human, also: biotinylated, site not given here).
T2 peptide: DESIYSNYYLYESIPKPC
Put plainly: BIAcore 2000, 4 ug/ml antibody over biotinylated Compound 1 on SA sensor tip. As for the experimental part:
In order to measure the binding activity in more detail, the binding activity of various purified antibodies was measured by using BIAcore 2000 (manufactured by BIACORE) as follows. In this case, HBS-EP (manufactured by BIACORE) was used as the buffer for diluting samples and for the measurement. First, 5 μl of 0.01 μg/ml solution of Compound 1 as a biotinylated CCR4 partial peptide was added to a sensor tip SA (manufactured by BIACORE) at a flow rate of 5 μl/minute and immobilized on the sensor tip.
To the prepared biotinylated compound 1-immobilized sensor tip, 20 μl of 4 μg/ml solution of each of the purified antibodies was added at a flow rate of 5 μl/minute, and after completion of the addition, the dissociation reaction was monitored for 4 minutes and then the sensor tip surface was regenerated by adding 5 μl of 10 mM HCl twice. In this way, a binding reaction curve (sensorgram) for Compound 1 was obtained.
For orientation: SPR reads the build-up and loss of mass on a sensor chip optically.

Assay [3] has as its target T1, BSA-Compound 1 conjugate (human CCR4 …). The assay can be described thus: ELISA on BSA-Compound 1 conjugate, reference antibody. In general terms: ELISA stands for enzyme-linked immunosorbent assay.
Assay [4] addresses T3, human CCR4 on CCR4/EL-4 cells (CCR4-high-expressing cells) (human, UniProt P51679 1-360).
T3 construct: also called human CCR4-high-expressing cell
T3 sequence: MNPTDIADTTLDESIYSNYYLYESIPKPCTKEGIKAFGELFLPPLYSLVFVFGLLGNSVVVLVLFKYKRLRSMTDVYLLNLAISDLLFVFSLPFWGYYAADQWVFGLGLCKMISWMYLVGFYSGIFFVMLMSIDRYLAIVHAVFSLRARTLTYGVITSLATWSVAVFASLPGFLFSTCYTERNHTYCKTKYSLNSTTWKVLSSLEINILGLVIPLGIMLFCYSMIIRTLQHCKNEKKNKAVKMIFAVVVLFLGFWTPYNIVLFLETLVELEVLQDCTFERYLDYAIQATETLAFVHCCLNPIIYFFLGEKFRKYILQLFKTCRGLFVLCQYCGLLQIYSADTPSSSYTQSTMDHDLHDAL
The assay can be described thus: flow cytometry (immunofluorescent method) on CCR4/EL-4 cells, 10 ug/ml antibody, reference antibody. As for the experimental part:
Into a 96 well plate, 2×10⁵ or more of CCR4/EL-4 cells, CCR4-high-expressing cells obtained in Reference Example 1, were dispensed. An antibody solution was prepared by diluting each of the purified antibodies and a human immunoglobulin (manufactured by Welfide) for preventing nonspecific staining to give concentrations of 10 μg/ml and 3.75 mg/ml, respectively, with a buffer for FACS (1% BSA-PBS, 0.02% EDTA, 0.05% NaN₃), and the antibody solution was added at 100 μl/well and allowed to react for 30 minutes in ice. As a negative control, an anti-human IL-5 receptor α chain antibody (WO97/10354) was reacted with the same concentration. After washing twice with 200 μl/well of the buffer for FACS, a PE-labeled anti-human IgG antibody (manufactured by Coulter) diluted 100 times was added at 50 μl/well. After the reaction in ice under shading and subsequent washing three times with 200 μl/well of the buffer for FACS, the reaction product was suspended in 500 µl of the buffer for FACS and the fluorescence intensity was measured by using a flow cytometer.
A general note: Flow cytometry measures light scatter and fluorescence of single cells or particles in a stream.

Positions count from the first letter of the chain named. No end group written: not given here.

B1: anti-CCR4 CDR-grafted antibody Gal0LV0 (antibody, V domains shown)
VH: EVQLVESGGDLVQPGRSLRLSCAASGFIFSNYGMSWVRQAPGKGLEWVATISSASTYSYYPDSVKGRFTISRDNAKNSLYLQMNSLRVEDTALYYCARHSDGNFAFGYWGQGTLVTVSS
VL: DIVMTQSPLSLPVTPGEPASISCRSSRNIVHINGDTYLEWYLQKPGQSPQLLIYKVSNRFSGVPDRFSGSGSGTDFTLKISRVEAEDVGVYYCFQGSLLPWTFGQGTKVEIK
notes: Expressed from pKANTEX93 with human CH and CL; CDR alone grafted
For the molecule B1, the binding result in assay [1] and in assay [2] was “binds” in each case.

B2: anti-CCR4 CDR-grafted antibody HV0LV0 (antibody, V domains shown)
VH: B1 VH with D10G, R16G, I28T, A49S, A75S, S78T, V88A, L93V
VL: B1 VL
notes: Expressed from pKANTEX93 with human CH and CL
Regarding B2, the binding result in assay [1] is given as “binds”.

B3: anti-CCR4 human chimeric antibody KM2760 (antibody, V domains shown)
VH: EVQLVESGGDLMKPGGSLKISCAASGFIFSNYGMSWVRQTPDMRLEWVATISSASTYSYYPDSVKGRFTISRDNAENSLYLQMNSLRSEDTGIYYCGRHSDGNFAFGYWGRGTLVTVSA
VL: DVLMTQTPLSLPVSLGDQASISCRSSRNIVHINGDTYLEWYLQRPGQSPKLLIYKVSNRFSGVPDRFSGSGSGTDFTLKISRVEAEDLGVYYCFQGSLLPWTFGGGTRLEIRR
notes: Produced by transformant KM2760 (FERM BP-7054); also called anti-CCR4 chimeric antibody KM2760
As to B3, the binding result in assay [3] and in assay [4] was “binds” each time.

For the origin of these results see patent US20050095242A1 (published 2005).
